This is an account of results in IntAct's records for PubMed 23929946.

B1: Protein BRASSINOSTEROID … 1 (Arabidopsis thaliana (Mouse-ear cress)), O22476 (parent)
chain: MKTFSSFFLSVTTLFFFSFFSLSFQASPSQSLYREIHQLISFKDVLPDKNLLPDWSSNKNPCTFDGVTCRDDKVTSIDLSSKPLNVGFSAVSSSLLSLTGLESLFLSNSHINGSVSGFKCSASLTSLDLSRNSLSGPVTTLTSLGSCSGLKFLNVSSNTLDFPGKVSGGLKLNSLEVLDLSANSISGANVVGWVLSDGCGELKHLAISGNKISGDVDVSRCVNLEFLDVSSNNFSTGIPFLGDCSALQHLDISGNKLSGDFSRAISTCTELKLLNISSNQFVGPIPPLPLKSLQYLSLAENKFTGEIPDFLSGACDTLTGLDLSGNHFYGAVPPFFGSCSLLESLALSSNNFSGELPMDTLLKMRGLKVLDLSFNEFSGELPESLTNLSASLLTLDLSSNNFSGPILPNLCQNPKNTLQELYLQNNGFTGKIPPTLSNCSELVSLHLSFNYLSGTIPSSLGSLSKLRDLKLWLNMLEGEIPQELMYVKTLETLILDFNDLTGEIPSGLSNCTNLNWISLSNNRLTGEIPKWIGRLENLAILKLSNNSFSGNIPAELGDCRSLIWLDLNTNLFNGTIPAAMFKQSGKIAANFIAGKRYVYIKNDGMKKECHGAGNLLEFQGIRSEQLNRLSTRNPCNITSRVYGGHTSPTFDNNGSMMFLDMSYNMLSGYIPKEIGSMPYLFILNLGHNDISGSIPDEVGDLRGLNILDLSSNKLDGRIPQAMSALTMLTEIDLSNNNLSGPIPEMGQFETFPPAKFLNNPGLCGYPLPRCDPSNADGYAHHQRSHGRRPASLAGSVAMGLLFSFVCIFGLILVGREMRKRRRKKEAELEMYAEGHGNSGDRTANNTNWKLTGVKEALSINLAAFEKPLRKLTFADLLQATNGFHNDSLIGSGGFGDVYKAILKDGSAVAIKKLIHVSGQGDREFMAEMETIGKIKHRNLVPLLGYCKVGDERLLVYEFMKYGSLEDVLHDPKKAGVKLNWSTRRKIAIGSARGLAFLHHNCSPHIIHRDMKSSNVLLDENLEARVSDFGMARLMSAMDTHLSVSTLAGTPGYVPPEYYQSFRCSTKGDVYSYGVVLLELLTGKRPTDSPDFGDNNLVGWVKQHAKLRISDVFDPELMKEDPALEIELLQHLKVAVACLDDRAWRRPTMVQVMAMFKEIQAGSGIDSQSTIRSIEDGGFSTIEMVDMSIKEVPEGKL
partner: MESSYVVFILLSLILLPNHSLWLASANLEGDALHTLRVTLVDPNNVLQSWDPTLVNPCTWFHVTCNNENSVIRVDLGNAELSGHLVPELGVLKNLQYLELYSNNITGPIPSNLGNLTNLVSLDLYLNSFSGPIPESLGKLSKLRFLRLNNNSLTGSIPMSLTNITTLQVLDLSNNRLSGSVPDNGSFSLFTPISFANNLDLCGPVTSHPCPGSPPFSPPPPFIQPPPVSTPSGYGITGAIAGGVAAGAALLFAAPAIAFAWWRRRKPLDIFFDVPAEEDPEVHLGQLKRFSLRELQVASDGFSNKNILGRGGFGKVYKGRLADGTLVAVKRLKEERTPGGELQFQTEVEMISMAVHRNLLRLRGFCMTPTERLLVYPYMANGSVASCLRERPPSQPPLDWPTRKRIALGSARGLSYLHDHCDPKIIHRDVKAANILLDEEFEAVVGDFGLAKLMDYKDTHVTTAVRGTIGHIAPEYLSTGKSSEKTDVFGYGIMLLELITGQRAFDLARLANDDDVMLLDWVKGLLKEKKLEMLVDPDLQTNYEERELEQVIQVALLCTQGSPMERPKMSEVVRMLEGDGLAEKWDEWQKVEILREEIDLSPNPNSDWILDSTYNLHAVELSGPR

The experiment covers variants of B1. The conditions noted are these: with serk1_arath SERK1, Q94AG2.
For the variant T750I, the “effect of a mutation on the interaction” value is “disrupting interaction strength”.
